In patent US20190169308A1:

B1: 1212/1213 (antibody, V domains shown)
VH: EVQLLESGGGLVQPGGSLRLSCAASGFTFSSYAMSWVRQAPGKGLEWVSYISSYGGYTSYADSVKGRFTISRDNSKNTLYLQMNSLRAEDTAVYYCARYHSGVLDYWGQGTLVTVSS
VL: DIQMTQSPSSLSASVGDRVTITCRASQSISSYLNWYQQKPGKAPKLLIYAASSLQSGVPSRFSGSGSGTDFTLTISSLQPEDFATYYCQQYYYHYLLTFGQGTKLEIK
B2: 1206/1207 (antibody, V domains shown)
VH: EVQLLESGGGLVQPGGSLRLSCAASGFTFSGSSMSWVRQAPGKGLEWVSSIYYSGSGTYYADSVKGRFTISRDNSKNTLYLQMNSLRAEDTAVYYCARYGRNVHPYNLDYWGQGTLVTVSS
VL: DIQMTQSPSSLSASVGDRVTITCRASQSISSYLNWYQQKPGKAPKLLIYAASSLQSGVPSRFSGSGSGTDFTLTISSLQPEDFATYYCQQGYYYLPTFGQGTKLEIK

Biological target: human/mouse 5T4 chimera aa173-420 (human; mouse) (UniProt Q13641)
Sequence (Q13641 other isoform, or with tags, fused parts or gaps mutant limits assumed, form in doubt): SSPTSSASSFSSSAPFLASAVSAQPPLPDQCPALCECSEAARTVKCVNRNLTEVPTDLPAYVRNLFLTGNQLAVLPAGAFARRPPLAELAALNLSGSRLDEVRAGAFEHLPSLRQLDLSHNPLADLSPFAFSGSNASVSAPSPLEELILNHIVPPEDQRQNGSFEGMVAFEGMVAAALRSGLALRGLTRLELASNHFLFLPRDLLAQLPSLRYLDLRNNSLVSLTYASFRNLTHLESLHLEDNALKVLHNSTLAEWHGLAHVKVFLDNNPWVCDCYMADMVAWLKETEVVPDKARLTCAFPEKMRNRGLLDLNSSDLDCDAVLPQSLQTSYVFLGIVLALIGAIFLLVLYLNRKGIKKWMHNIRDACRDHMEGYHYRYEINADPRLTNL
Assay: flow cytometry, cells with human/mouse 5T4 chimera

Row | Binder | normalized % positive cells
1 | B1 | -0.01
2 | B2 | 0.3
